In one assay the target is T1, CSF1R (Homo sapiens, UniProt P07333).
T1 construct: endogenous in cells; host or cells: L540Cy (Hodgkin/Reed-Sternberg cell line)
Put plainly: CSF1R tyrosine phosphorylation in L540Cy cells (CSF1R IP, p-Tyr western blot). In kind it is cell-based. Conditions: L540Cy cells stimulated with rhCSF-1. The method, then: FIG. 1. Lineage-inappropriate expression of functional CSF1R and CSF-1 in Hodgkin lymphoma cells. Analysis of CSF1R and CSF-1 protein expression and of CSF1R:Fc functionality. (A) Analysis of CSF1R and CSF1 mRNA expression by RT-PCR in Hodgkin and non-Hodgkin cell lines. Expression of GAPDH was analyzed as a control. (1a) Analysis of CSF1R and CSF1 mRNA expression by RT-PCR in Hodgkin's and non-Hodgkin's cell lines. GAPDH expression was analyzed as a control. One representative of four independent experiments is shown. (B, C) Analysis of CSF1R (B) and CSF-1 (C) protein expression in various cell lines by extracellular and intracellular flow cytometry, respectively. IC, isotype control. (D) Supernatants of various cell lines were analyzed by a CSF-1-specific ELISA. […] CSF1R tyrosine phosphorylation was detected by WB with an antibody recognizing phospho-tyrosine (p-Tyr; upper panel). […] CSF1R tyrosine phosphorylation was detected by western blotting with an antibody recognizing phosphotyrosine (p-Tyr; top). […]
FIG. 3. […] After 48 hours, cells were pulsed with 1 μCi [^3H]-thymidine per well for a further 20 hours, and [^3H]-thymidine incorporation was determined cpm, counts per minute. […] (3A) [^3H]-thymidine incorporation in L540Cy cells left untreated (−) or treated with the indicated amounts of rhCSF-1 (black bars) or water control (open bars) under serum-reduced conditions (1% FCS) determined after 48 h. […]

The test system of another assay is L540Cy cells. Put plainly: [3H]-thymidine incorporation in L540Cy cells. In kind it is cell-based, human. Conditions: 1% FCS, 48 h. The method, then: FIG. 3. HRS cells depend on CSF1R activity. (A) L540Cy cells were left untreated (−) or treated with the indicated amounts rhCSF-1 (closed bars) or the respective control (open bars) under serum reduced conditions (1% FCS). After 48 hours, cells were pulsed with 1 μCi [^3H]-thymidine per well for a further 20 hours, and [^3H]-thymidine incorporation was determined cpm, counts per minute. Data are represented as mean±SD. (3A) [^3H]-thymidine incorporation in L540Cy cells left untreated (−) or treated with the indicated amounts of rhCSF-1 (black bars) or water control (open bars) under serum-reduced conditions (1% FCS) determined after 48 h. Data are represented as means±s.d. […] After 24 hours, cells were pulsed with [^3H]-thymidine incorporation and analyzed as described in (A). […] CSF1R tyrosine phosphorylation was analyzed as described in FIG. 1F. […]
DNA synthesis was determined by [^3H]-thymidine incorporation assays using standard protocols. The percentage of viable and apoptotic cells was determined by annexin V-FITC/propidium iodide (PI) double-staining (Bender MedSystems) and subsequent FACS analysis.
We determined DNA synthesis by [^3H]-thymidine incorporation assays using standard protocols. In case of L540Cy cells (FIG. 1d), after 48 hours, cells were pulsed with 1 μCi [^3H]-thymidine per well for a further 20 hours, and [^3H]-thymidine incorporation was determined. […]

T1 sequence (P07333 20-972): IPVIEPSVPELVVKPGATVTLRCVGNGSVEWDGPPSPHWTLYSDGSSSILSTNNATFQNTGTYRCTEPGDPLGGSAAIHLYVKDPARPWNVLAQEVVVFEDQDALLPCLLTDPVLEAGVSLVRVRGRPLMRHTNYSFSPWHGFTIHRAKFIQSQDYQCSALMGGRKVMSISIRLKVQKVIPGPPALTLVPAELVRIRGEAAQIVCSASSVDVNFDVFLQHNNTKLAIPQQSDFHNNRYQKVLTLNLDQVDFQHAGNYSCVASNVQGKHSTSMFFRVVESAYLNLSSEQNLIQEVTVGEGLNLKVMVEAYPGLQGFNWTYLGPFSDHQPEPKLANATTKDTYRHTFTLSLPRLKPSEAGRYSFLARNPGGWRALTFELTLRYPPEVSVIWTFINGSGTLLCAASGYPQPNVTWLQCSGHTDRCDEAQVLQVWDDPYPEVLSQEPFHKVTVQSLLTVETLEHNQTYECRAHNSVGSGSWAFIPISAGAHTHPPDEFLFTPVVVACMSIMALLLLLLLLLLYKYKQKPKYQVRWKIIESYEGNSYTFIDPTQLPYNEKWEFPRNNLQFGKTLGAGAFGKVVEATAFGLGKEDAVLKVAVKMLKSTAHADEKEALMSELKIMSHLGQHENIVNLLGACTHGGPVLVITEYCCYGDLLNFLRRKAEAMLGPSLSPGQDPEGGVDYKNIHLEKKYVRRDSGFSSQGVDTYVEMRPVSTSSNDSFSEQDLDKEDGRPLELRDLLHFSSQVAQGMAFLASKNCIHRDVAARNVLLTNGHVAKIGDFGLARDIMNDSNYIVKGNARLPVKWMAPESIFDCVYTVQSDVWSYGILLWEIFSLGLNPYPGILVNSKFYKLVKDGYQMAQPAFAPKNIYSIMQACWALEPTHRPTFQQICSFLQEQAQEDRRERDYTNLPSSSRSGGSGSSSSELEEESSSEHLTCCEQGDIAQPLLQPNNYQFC

B1: rhCSF-1: recombinant human CSF-1 (216-MC, R&D Systems) (protein)
chain: EEVSEYCSHMIGSGHLQSLQRLIDSQMETSCQITFEFVDQEQLKDPVCYLKKAFLLVQDIMEDTMRFRDNTPNAIAIVQLQELSLRLKSCFTKDYEEHDKACVRTFYETPLQLLEKVKNVFNETKNLLDKDWNIFSKNCNNSFAECSSQDVVTKPDCN
Consider B1, for which the “CSF1R tyrosine phosphorylation following stimulation” value in the assay with CSF1R was “rapid increase”. In addition, in the assay with L540Cy cells, the “proliferation ([3H]-thymidine incorporation)” value is on record as “induced proliferation in a dose-dependent manner”.

The record behind these values is patent US20120277281A1, “POLYNUCLEOTIDES FOR MEDICAL USE” (MAX-DELBRÜCK-CENTRUM FÜR MOLEKULARE MEDIZIN, priority 2009, published 2012).
